Experimental data: the supplement of paper PMC10567573

B1: TRIM9 (parent)
chain: CVQCKMPVCYQCLEEGKHSSHEVK

Variants of: B1
Assay: protein stability index of a GFP-peptide fusion (GPS, HEK-293T) (PSI 1-6); higher = more stable
Details: c terminus: a fixed tail appended
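Further: lentivirally expressed fusions sorted by FACS into six bins by GFP to DsRed ratio, PSI derived from sequencing read proportions per bin multiplied by bin number.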

Protein stability index, by site and new letter:
H21: P 4.08 | C 4.1 | T 4.47 | R 3.36 | F 2.88 | G 4.16 | Q 4.16 | D 3.88 | S 3.54 | W 2.96 | L 3.87 | M 3.7 | E 4.57 | I 3.66 | K 3.76 | V 4.05 | A 3.15 | N 3.75 | Y 3.14
Q11: R 3.77 | Y 3.52 | E 3.57 | P 3.76 | I 3.4 | H 3.2 | F 3.65 | N 4.27 | C 4.83 | T 4.12 | L 2 | M 3.17 | D 4.05 | S 3.67 | V 3.27 | K 3.95 | W 2.93 | G 4.92
K5: S 3.9 | T 3.38 | W 3.03 | V 2.41 | Y 2.56
M6: C 3.73 | K 4.46 | Q 4.36 | N 4.22 | A 3.95 | Y 3.79 | S 4.97 | P 3.62 | F 3.89 | E 4.37 | I 3.4 | V 4.13 | G 4.93 | L 3.99 | D 4.71 | H 4.3 | R 4.17 | T 3.96
C12: Q 4.03 | P 3 | W 2.92 | G 3.81 | Y 3.58 | K 4.8 | M 3.7 | A 3.35 | H 4.34 | V 3.45 | L 3.48 | N 3.67 | E 4.25 | D 4.2 | F 3.19 | T 3.42 | S 4.48 | I 2.28
C9: M 3.64 | Q 4.09 | P 3.02 | G 4.47 | I 3.18 | D 4.45 | Y 2.8 | W 2.96 | H 3.5 | R 3.31 | A 4.19 | V 4.07 | N 3.87 | S 4.24 | F 2.59 | T 4.41 | L 3.28
K17: Q 4.5 | M 3.3 | I 3.61 | A 4.14 | R 2.96 | E 3.89 | H 4.47 | Y 3.54 | N 3.65 | C 3.47 | V 3.81 | F 3.1 | S 3.42 | G 4.38 | P 3.75 | D 2.88 | L 3.86
H18: I 3.41 | M 3.93 | V 3 | P 3.28 | A 4.04 | N 3.94 | C 3.79 | Q 3.47 | Y 3.55 | G 3.63 | F 3.78 | L 3.55 | K 3.7 | W 3.04 | S 4.42 | D 4.46 | R 3.82 | T 4.11 | E 3.56
V23: N 3.98 | W 3.38 | A 4.37 | P 4.24 | K 3.68 | Q 3.85 | L 3.16 | C 4.65 | S 3.37 | D 4.44 | F 3.65 | E 4.28 | G 3.84 | R 3.24 | M 4 | T 3.84 | I 3.7 | H 3.32
P7: G 4.59 | R 3.51 | K 3.84 | H 3.23 | L 3.28 | C 4.06 | D 3.11 | E 4.35 | S 3.65 | T 3.08 | V 3.52 | F 2.48 | Q 3.83 | A 4.02 | W 3.18 | M 4.33 | N 4.14 | I 3.69
